{"source": "patent US20220290149", "about": "“METHOD OF DETECTION OF FIBRIN CLOTS” (I-ZUM-X PTY LTD, published 2022)", "key": {"[1]": {"target": "T1, D-dimer (TGpr1; fibrin clot degradation product DD) (UniProt P02671;P02675;P02679-2 P02671:124-225,P02675:164-491,P02679-2:89-437)", "T1 sequence (P02671 124-225, chain 1 of 3)": "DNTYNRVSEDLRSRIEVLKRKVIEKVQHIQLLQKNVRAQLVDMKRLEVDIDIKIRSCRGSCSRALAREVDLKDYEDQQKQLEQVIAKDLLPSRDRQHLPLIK", "T1 sequence (P02675 164-491, chain 2 of 3)": "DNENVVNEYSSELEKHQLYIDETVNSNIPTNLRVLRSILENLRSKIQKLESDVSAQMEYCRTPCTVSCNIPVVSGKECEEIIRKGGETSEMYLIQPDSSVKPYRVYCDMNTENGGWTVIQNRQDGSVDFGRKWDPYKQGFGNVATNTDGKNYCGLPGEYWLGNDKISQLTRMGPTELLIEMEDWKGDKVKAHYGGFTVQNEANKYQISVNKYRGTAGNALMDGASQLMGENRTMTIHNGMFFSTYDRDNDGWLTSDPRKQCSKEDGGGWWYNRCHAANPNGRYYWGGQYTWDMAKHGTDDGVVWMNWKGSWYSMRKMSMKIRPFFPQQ", "T1 sequence (P02679 other isoform, or with tags, fused parts or gaps, chain 3 of 3)": "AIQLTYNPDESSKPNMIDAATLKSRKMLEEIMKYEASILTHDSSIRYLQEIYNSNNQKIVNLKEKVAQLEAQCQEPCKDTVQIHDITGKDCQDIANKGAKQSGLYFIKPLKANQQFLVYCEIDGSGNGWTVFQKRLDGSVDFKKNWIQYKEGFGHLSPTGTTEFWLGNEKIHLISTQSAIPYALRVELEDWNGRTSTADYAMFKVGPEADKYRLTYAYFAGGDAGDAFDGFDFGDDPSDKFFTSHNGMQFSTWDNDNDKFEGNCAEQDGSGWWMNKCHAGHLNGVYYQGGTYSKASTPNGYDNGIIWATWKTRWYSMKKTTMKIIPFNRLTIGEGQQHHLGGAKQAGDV", "test": "ELONA; considered non-specific", "conditions": "chain copies: 2; label: 5' biotin"}, "Fibrinogen": {"target": "Fibrinogen (UniProt P02671-2;P02675;P02679-2 P02671-2:20-644,P02675:31-491,P02679-2:27-437)", "sequence (P02671 other isoform, or with tags, fused parts or gaps, chain 1 of 3)": "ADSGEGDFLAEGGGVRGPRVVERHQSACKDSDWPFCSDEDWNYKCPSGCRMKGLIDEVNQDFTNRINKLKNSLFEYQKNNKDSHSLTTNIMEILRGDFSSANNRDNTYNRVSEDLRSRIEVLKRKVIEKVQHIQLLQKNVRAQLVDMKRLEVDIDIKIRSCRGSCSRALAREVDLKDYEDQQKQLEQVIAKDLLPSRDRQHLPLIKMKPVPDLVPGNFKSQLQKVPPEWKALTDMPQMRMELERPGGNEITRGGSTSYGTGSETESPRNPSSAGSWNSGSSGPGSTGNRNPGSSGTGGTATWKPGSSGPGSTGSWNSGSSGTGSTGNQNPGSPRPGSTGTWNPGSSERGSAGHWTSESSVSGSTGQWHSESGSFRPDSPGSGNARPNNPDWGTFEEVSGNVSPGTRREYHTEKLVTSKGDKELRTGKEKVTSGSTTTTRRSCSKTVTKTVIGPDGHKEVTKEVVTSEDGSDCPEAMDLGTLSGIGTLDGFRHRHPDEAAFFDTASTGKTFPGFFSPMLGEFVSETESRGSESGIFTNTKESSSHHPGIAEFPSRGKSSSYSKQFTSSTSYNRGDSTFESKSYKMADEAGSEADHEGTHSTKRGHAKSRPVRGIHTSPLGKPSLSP", "sequence (P02675 31-491, chain 2 of 3)": "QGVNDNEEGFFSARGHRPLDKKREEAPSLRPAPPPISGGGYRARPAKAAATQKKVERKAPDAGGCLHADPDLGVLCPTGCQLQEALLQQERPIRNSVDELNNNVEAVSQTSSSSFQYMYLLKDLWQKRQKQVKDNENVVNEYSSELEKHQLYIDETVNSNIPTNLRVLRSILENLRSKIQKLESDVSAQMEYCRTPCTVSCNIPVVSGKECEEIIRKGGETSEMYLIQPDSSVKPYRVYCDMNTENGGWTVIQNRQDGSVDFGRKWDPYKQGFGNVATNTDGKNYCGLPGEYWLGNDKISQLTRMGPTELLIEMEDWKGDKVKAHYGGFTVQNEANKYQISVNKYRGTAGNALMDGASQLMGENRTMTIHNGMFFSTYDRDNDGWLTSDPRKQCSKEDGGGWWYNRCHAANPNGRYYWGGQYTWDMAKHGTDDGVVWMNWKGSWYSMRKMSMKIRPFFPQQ", "sequence (P02679 other isoform, or with tags, fused parts or gaps, chain 3 of 3)": "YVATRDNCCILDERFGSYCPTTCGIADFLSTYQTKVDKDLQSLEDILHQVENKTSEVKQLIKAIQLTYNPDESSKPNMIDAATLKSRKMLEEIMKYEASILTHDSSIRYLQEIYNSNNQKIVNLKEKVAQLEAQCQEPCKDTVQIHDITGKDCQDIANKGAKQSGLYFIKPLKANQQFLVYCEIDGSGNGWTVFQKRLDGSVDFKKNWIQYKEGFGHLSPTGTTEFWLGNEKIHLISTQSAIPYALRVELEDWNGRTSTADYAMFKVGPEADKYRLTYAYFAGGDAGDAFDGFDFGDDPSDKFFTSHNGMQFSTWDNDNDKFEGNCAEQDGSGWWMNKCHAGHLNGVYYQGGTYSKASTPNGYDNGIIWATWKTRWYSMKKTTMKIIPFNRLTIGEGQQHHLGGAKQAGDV", "test": "ELONA; 100 nM aptamer", "conditions": "chain copies: 2; label: 5' FAM (ELONA and imaging)"}, "[2]": {"target": "T1, D-dimer (TGpr1; fibrin clot degradation …)", "test": "ELONA; 100 nM aptamer", "conditions": "chain copies: 2; label: 5' FAM (ELONA and imaging)"}, "[3]": {"target": "T1, D-dimer (TGpr1; fibrin clot degradation …)", "test": "ELONA; TGpr1/SUBpr1 binding ratio, 500 nM aptamer", "conditions": "chain copies: 2", "method": "FIG. 6 is a graph of the relative fluorescence of five aptamers to TGpr-1 protein and SUBpr-1 protein. The test was performed with an ELONA method with fixed aptamer concentration (500 nM) and protein amount (2 ug/well). *p<0.01."}, "[4]": {"target": "T1, D-dimer (TGpr1; fibrin clot degradation …)", "test": "ELONA", "conditions": "chain copies: 2"}, "[5]": {"target": "Insoluble cross-linked fibrin / plasma-derived blood clot (Homo sapiens, UniProt P02671-2;P02675;P02679-2 P02671-2:36-644,P02675:45-491,P02679-2:27-437)", "sequence (P02671 other isoform, or with tags, fused parts or gaps, chain 1 of 3)": "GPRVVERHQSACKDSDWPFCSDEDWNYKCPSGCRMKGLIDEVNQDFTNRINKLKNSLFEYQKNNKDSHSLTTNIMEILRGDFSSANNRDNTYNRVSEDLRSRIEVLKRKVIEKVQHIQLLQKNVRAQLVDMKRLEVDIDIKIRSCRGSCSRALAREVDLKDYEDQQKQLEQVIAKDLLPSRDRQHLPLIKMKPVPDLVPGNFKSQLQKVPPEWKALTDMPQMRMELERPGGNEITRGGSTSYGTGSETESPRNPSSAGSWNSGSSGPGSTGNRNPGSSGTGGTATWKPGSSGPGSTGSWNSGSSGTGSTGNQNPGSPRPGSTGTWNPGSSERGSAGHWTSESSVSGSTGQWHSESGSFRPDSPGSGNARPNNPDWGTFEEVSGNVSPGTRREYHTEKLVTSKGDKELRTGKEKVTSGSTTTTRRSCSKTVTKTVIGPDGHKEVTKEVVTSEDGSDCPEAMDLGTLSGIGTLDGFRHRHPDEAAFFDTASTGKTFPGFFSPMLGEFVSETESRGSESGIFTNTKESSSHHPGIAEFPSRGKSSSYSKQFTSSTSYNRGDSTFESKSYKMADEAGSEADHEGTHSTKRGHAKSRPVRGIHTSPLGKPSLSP", "sequence (P02675 45-491, chain 2 of 3)": "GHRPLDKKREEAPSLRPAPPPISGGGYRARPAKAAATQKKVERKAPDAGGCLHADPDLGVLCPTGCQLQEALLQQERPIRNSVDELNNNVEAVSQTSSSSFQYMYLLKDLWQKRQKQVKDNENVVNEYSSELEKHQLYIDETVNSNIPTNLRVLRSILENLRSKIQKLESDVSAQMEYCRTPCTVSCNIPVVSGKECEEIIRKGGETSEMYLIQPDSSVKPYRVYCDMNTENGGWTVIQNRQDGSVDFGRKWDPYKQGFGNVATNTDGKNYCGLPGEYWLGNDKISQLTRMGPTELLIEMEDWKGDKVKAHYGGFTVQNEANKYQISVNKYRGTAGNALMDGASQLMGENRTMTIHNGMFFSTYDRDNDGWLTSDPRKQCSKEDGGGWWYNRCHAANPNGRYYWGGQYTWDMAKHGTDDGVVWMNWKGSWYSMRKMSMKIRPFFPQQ", "test": "qPCR-based binding assay", "conditions": "tags: clot prepared from citrated plasma plus CaCl2"}, "[6]": {"target": "T1, D-dimer (TGpr1; fibrin clot degradation …)", "test": "ELONA; unit printed as Nm", "conditions": "chain copies: 2"}}, "data": [{"binder": "EM1 (ssDNA) DNA: ACAAAGCGACACACAGGAGCCCAATGATGCTGTTATGGCGCTTTGTGGACAGGACCACACCCAGCG", "values": [{"measurement": "Kd", "setting": "[1]", "value": "> 1000", "unit": "nM"}]}, {"binder": "AP1 (ssDNA) DNA: ACAAAGCGACACACAGGAGCCCGGTCGGCGGGGGGGCGGGTGGAGAACGAGGTAGGGGTCAGGACAGGACCACACCCAGCG", "values": [{"measurement": "Kd", "setting": "[1]", "value": "> 1000", "unit": "nM"}]}, {"binder": "AP3 (ssDNA) DNA: ACAAAGCGACACACAGGAGCCCGGTCGGCGGGTGGGCGGGTGGAGAACGAGGTAGGGGTCAGGACAGGACCACACCCAGCG", "values": [{"measurement": "Kd", "setting": "[1]", "value": "> 1000", "unit": "nM"}]}, {"binder": "RNV602 (ssDNA) DNA: GGACAGGACCACACCCAGCGTAATAATATGGGGCTTGCGGTCCCCGATTTTTATGCACACGGCTCCTGTGTGTCGCTTTGT", "values": [{"measurement": "binding result", "setting": "Fibrinogen", "value": "no binding"}, {"measurement": "binding result", "setting": "[2]", "value": "no binding"}]}, {"binder": "RNV605 (ssDNA) DNA: GGACAGGACCACACCCAGCGATAATTAGGCATCCGGTCGCCAACCTTGGAGAAACTATCTGGCTCCTGTGTGTCGCTTTGT", "values": [{"measurement": "binding result", "setting": "Fibrinogen", "value": "no binding"}, {"measurement": "binding result", "setting": "[2]", "value": "no binding"}]}, {"binder": "ACAGTGTGGGCGGGCGGGTGGTTTGGAGCTGGTAGCGGTA (ssDNA)", "note": "[AP10-01]", "values": [{"measurement": "binding signal", "setting": "[3]", "value": 4.21, "unit": "ratio"}, {"measurement": "Kd", "setting": "[4]", "value": 54, "unit": "nM"}]}, {"binder": "RNV606 (ssDNA) DNA: GGACAGGACCACACCCAGCGGATAACTAGGCACCCGGTGTCGTTATTATGACAAGATATTGGCTCCTGTGTGTCGCTTTGT", "values": [{"measurement": "binding result", "setting": "[5]", "value": "binds"}]}, {"binder": "RNV607 (ssDNA) DNA: GGACAGGACCACACCCAGCGAGGAAATATTTAGGCACCCGGTCTCTGAAAATATTGTGCTGGCTCCTGTGTGTCGCTTTGT", "values": [{"measurement": "binding result", "setting": "[5]", "value": "binds"}]}, {"binder": "RNV604 (ssDNA) DNA: GGACAGGACCACACCCAGCGGATACCTGAAGCTGGCCCACATTTATCTACGCGATATATTGGCTCCTGTGTGTCGCTTTGT", "values": [{"measurement": "binding result", "setting": "[5]", "value": "binds"}]}, {"binder": "AAGGGAAAGTGTATACACTATGGCT (ssDNA)", "note": "[EM9-02]", "values": [{"measurement": "binding signal", "setting": "[3]", "value": 1.85, "unit": "ratio"}]}, {"binder": "RNV603 (ssDNA) DNA: GGACAGGACCACACCCAGCGTGCGTGAAATTCGGGGCATGGTTAGGATAGGTAATATTTTGGCTCCTGTGTGTCGCTTTGT", "values": [{"measurement": "binding result", "setting": "[5]", "value": "binds"}]}, {"binder": "AP10-01-81 (ssDNA) DNA: GGACAGGACCACACCCAGCGACAGTGTGGGCGGGCGGGTGGTTTGGAGCTGGTAGCGGTAGGCTCCTGTGTGTCGCTTTGT", "values": [{"measurement": "Kd", "setting": "[6]", "value": 59, "unit": "nM"}]}]}
